# Source: patent publication US20160039904A1, “STABILIZED SINGLE HUMAN CD4 DOMAINS AND FUSION PROTEINS” (priority 2013, published 2016)
# Key:
# Experiment in all cases: cell-based or functional assay
# [1] = target: HIV-1 Env of isolate KNH1088.EC5 (HIV-1)
# [2] = target: HIV-1 Env of isolate A07412VRC12A (HIV-1)
# [3] = target: HIV-1 Env of isolate N1 1046.e3 PV (HIV-1)
# [4] = target: HIV-1 Env of isolate 55815.EC3 (HIV-1)
# [5] = target: HIV-1 Env of isolate KNH1144.EC1 (HIV-1)
# [6] = target: HIV-1 Env of isolate BZ167.ec9 (HIV-1)
# [7] = target: HIV-1 Env of isolate Bal.EC1 TC (HIV-1)
# [8] = target: HIV-1 Env of isolate GS-015.EC12 (HIV-1)
# [9] = target: HIV-1 Env of isolate PBL286.VRC36aPV (HIV-1)
# [10] = target: HIV-1 Env of isolate CM240.EC1 (HIV-1)
# [11] = target: HIV-1 Env of isolate 57128.VRC18 (HIV-1)
# [12] = target: HIV-1 Env of isolate CAM0015BBY.EC3 (HIV-1)
# [13] = target: HIV-1 Env of isolate AE03 (HIV-1)
# [14] = target: HIV-1 Env of isolate CNE6 (HIV-1)
# [15] = target: HIV-1 Env of isolate CNE58 (HIV-1)
# [16] = target: HIV-1 Env of isolate CNE1 (HIV-1)
# [17] = target: HIV-1 Env of isolate CNE15 (HIV-1)
# [18] = target: HIV-1 Env of isolate CNE46 (HIV-1)
# [19] = target: HIV-1 Env of isolate CH120 (HIV-1)
# [20] = target: HIV-1 Env of isolate CNE20 (HIV-1)
# [21] = target: HIV-1 Env of isolate CH117 (HIV-1)
# [22] = target: HIV-1 Env of isolate CH70 (HIV-1)
# [23] = target: HIV-1 Env of isolate CH91 (HIV-1)
# [24] = target: HIV-1 Env of isolate CNE14 (HIV-1)
# [25] = target: HIV-1 Env of isolate CNE3 (HIV-1)
# [26] = target: HIV-1 Env of isolate CNE40 (HIV-1)
# [27] = target: HIV-1 Env of isolate CNE65 (HIV-1)
# [28] = target: HIV-1 Env of isolate CNE5 (HIV-1)
# [29] = target: HIV-1 Env of isolate CNE55 (HIV-1)
# [30] = target: HIV-1 Env of isolate CH119 (HIV-1)
# [31] = target: HIV-1 Env of isolate CNE7 (HIV-1)
# [32] = target: HIV-1 Env of isolate CNE57 (HIV-1)
# [33] = target: HIV-1 Env of isolate CNE64 (HIV-1)
# [34] = target: HIV-1 Env of isolate CNE53 (HIV-1)
# [35] = target: HIV-1 Env of isolate CNE9 (HIV-1)
# [36] = target: HIV-1 Env of isolate AE20 (HIV-1)
# [37] = target: HIV-1 Env of isolate CNE23 (HIV-1)
# [38] = target: HIV-1 Env of isolate CNE47 (HIV-1)
# [39] = target: HIV-1 Env of isolate CNE66 (HIV-1)
# [40] = target: HIV-1 Env of isolate CNE59 (HIV-1)
# [41] = target: HIV-1 Env of isolate CNE17 (HIV-1)
# [42] = target: HIV-1 Env of isolate CNE11 (HIV-1)
# [43] = target: HIV-1 Env of isolate CNE49 (HIV-1)
# [44] = target: HIV-1 Env of isolate GX2010.36 (HIV-1)
# [45] = target: HIV-1 Env of isolate CNE30 (HIV-1)
# [46] = target: HIV-1 Env of isolate CNE107 (HIV-1)
# [47] = target: HIV-1 Env of isolate YN192.31 (HIV-1)
# [48] = target: HIV-1 Env of isolate CNE4 (HIV-1)
# [49] = target: HIV-1 Env of isolate CNE16 (HIV-1)
# [50] = target: HIV-1 Env of isolate CH110 (HIV-1)
# [51] = target: HIV-1 Env of isolate CH64 (HIV-1)
# [52] = target: HIV-1 Env of isolate CNE68 (HIV-1)
# [53] = target: HIV-1 Env of isolate CH114 (HIV-1)
substance,measurement,setting,value
b12 (antibody),"IC50, neutralization in TZM-bl cell-based assay",[1],117 nM
same,"IC90, neutralization in TZM-bl cell-based assay",[1],> 167 nM
same,"IC50, neutralization in TZM-bl cell-based assay",[2],12 nM
same,"IC90, neutralization in TZM-bl cell-based assay",[2],> 167 nM
same,"IC50, neutralization in TZM-bl cell-based assay",[3],138 nM
same,"IC90, neutralization in TZM-bl cell-based assay",[3],> 167 nM
same,"IC50, neutralization in TZM-bl cell-based assay",[4],> 167 nM
same,"IC90, neutralization in TZM-bl cell-based assay",[4],> 167 nM
same,"IC50, neutralization in TZM-bl cell-based assay",[5],> 167 nM
same,"IC90, neutralization in TZM-bl cell-based assay",[5],> 167 nM
same,"IC90, neutralization in TZM-bl cell-based assay",[6],> 167 nM
same,"IC90, neutralization in TZM-bl cell-based assay",[7],3.6 nM
same,"IC50, neutralization in TZM-bl cell-based assay",[8],0.085 nM
same,"IC90, neutralization in TZM-bl cell-based assay",[8],1.6 nM
same,"IC50, neutralization in TZM-bl cell-based assay",[9],4 nM
same,"IC90, neutralization in TZM-bl cell-based assay",[9],19 nM
same,"IC50, neutralization in TZM-bl cell-based assay",[10],82 nM
same,"IC90, neutralization in TZM-bl cell-based assay",[10],> 167 nM
same,"IC90, neutralization in TZM-bl cell-based assay",[11],30 nM
same,"IC50, neutralization in TZM-bl cell-based assay",[12],81 nM
same,"IC90, neutralization in TZM-bl cell-based assay",[12],> 167 nM
4Dm2m (Fc fusion),neutralization IC50,[13],0.67 nM
same,neutralization IC90,[13],12 nM
same,neutralization IC50,[14],0.33 nM
same,neutralization IC90,[14],2.3 nM
same,neutralization IC50,[15],2.1 nM
same,neutralization IC90,[15],> 28 nM
same,neutralization IC50,[16],0.11 nM
same,neutralization IC90,[16],0.61 nM
same,neutralization IC50,[17],0.29 nM
same,neutralization IC90,[17],2.6 nM
same,neutralization IC50,[18],0.27 nM
same,neutralization IC90,[18],9.4 nM
same,neutralization IC50,[19],0.33 nM
same,neutralization IC90,[19],6.6 nM
same,neutralization IC50,[20],0.05 nM
same,neutralization IC90,[20],5.3 nM
same,neutralization IC50,[21],0.33 nM
same,neutralization IC90,[21],15 nM
same,neutralization IC50,[22],0.11 nM
same,neutralization IC90,[22],1.2 nM
same,neutralization IC50,[23],0.39 nM
same,neutralization IC90,[23],10 nM
same,neutralization IC50,[24],0.17 nM
same,neutralization IC90,[24],2.4 nM
same,neutralization IC50,[25],0.39 nM
same,neutralization IC90,[25],2.8 nM
same,neutralization IC50,[26],0.01 nM
same,neutralization IC90,[26],0.11 nM
same,neutralization IC50,[27],0.28 nM
same,neutralization IC90,[27],3.3 nM
same,neutralization IC50,[28],0.67 nM
same,neutralization IC90,[28],8.7 nM
same,neutralization IC50,[29],0.45 nM
same,neutralization IC90,[29],10 nM
same,neutralization IC50,[30],0.17 nM
same,neutralization IC90,[30],3.4 nM
same,neutralization IC50,[31],0.18 nM
same,neutralization IC90,[31],1.8 nM
same,neutralization IC50,[32],1.2 nM
same,neutralization IC90,[32],19 nM
same,neutralization IC50,[33],0.56 nM
same,neutralization IC90,[33],3.2 nM
same,neutralization IC50,[34],0.24 nM
same,neutralization IC90,[34],5.5 nM
same,neutralization IC50,[35],0.22 nM
same,neutralization IC90,[35],3.2 nM
same,neutralization IC50,[36],0.72 nM
same,neutralization IC90,[36],5.8 nM
same,neutralization IC50,[37],0.49 nM
same,neutralization IC90,[37],4.9 nM
same,neutralization IC50,[38],0.11 nM
same,neutralization IC90,[38],2.8 nM
same,neutralization IC50,[39],0.17 nM
same,neutralization IC90,[39],7.7 nM
same,neutralization IC50,[40],0.17 nM
same,neutralization IC90,[40],2.7 nM
same,neutralization IC50,[41],0.11 nM
same,neutralization IC90,[41],2.4 nM
same,neutralization IC50,[42],0.33 nM
same,neutralization IC90,[42],2.6 nM
same,neutralization IC50,[43],0.05 nM
same,neutralization IC90,[43],0.56 nM
same,neutralization IC50,[44],0.11 nM
same,neutralization IC90,[44],18 nM
same,neutralization IC50,[45],0.07 nM
same,neutralization IC90,[45],0.44 nM
same,neutralization IC50,[46],0.52 nM
same,neutralization IC90,[46],18 nM
same,neutralization IC50,[47],0.89 nM
same,neutralization IC90,[47],21 nM
same,neutralization IC50,[48],0.11 nM
same,neutralization IC90,[48],2.4 nM
same,neutralization IC50,[49],0.08 nM
same,neutralization IC90,[49],1.2 nM
same,neutralization IC50,[50],0.11 nM
same,neutralization IC90,[50],0.83 nM
same,neutralization IC50,[51],0.17 nM
same,neutralization IC90,[51],1.6 nM
same,neutralization IC50,[52],0.11 nM
same,neutralization IC90,[52],0.78 nM
same,neutralization IC50,[53],0.11 nM
same,neutralization IC90,[53],4 nM
